According to patent US20200332307:

How the values were obtained:
[1] = test system: TALE1 synthetic transcription factor (TAL DNA-binding domain targeting ZmWUS promoter + activation domain) (synthetic (Xanthomonas TAL effector)?); test: cell_activity; conditions: endogenous WUS mRNA by qRT-PCR in maize protoplasts, 24 h
[2] = test system: TALE5 synthetic transcription factor (TAL DNA-binding domain targeting ZmBBM promoter + activation domain) (synthetic (Xanthomonas TAL effector)?); test: cell_activity; conditions: endogenous BBM mRNA by qRT-PCR in maize protoplasts, 24 h; text p298 cites SEQ ID NO: 218 but FIG. 3 legend assigns TALE4-6 to SEQ 270-272

Question: With “TCCCGCTCTCGCTCTCTGC (double strand) [TALE1 target site in ZmWUS promoter]” as the sequence, how does the activity (fold induction) [1] read?
Answer: 60

Question: “TCCTCGAATCATTCTAAGAAGAAAC (double strand) [TALE5 target site in ZmBBM promoter]” was tested. Which activity (fold induction) [2] did it give?
Answer: 490
